Usually Kd stands for the equilibrium constant for the complex coming apart.

One assay concerns the target murine FcRn (murine). The assay is described as follows: BIAcore SPR, equilibrium/Scatchard, soluble FcRn over immobilized IgG1, pH 6.0, 25 C.
The next assay deals with human FcRn (human). The description is as above.
Chain of human FcRn (human) (chain, as listed by the source limits assumed, chain 1 of 2): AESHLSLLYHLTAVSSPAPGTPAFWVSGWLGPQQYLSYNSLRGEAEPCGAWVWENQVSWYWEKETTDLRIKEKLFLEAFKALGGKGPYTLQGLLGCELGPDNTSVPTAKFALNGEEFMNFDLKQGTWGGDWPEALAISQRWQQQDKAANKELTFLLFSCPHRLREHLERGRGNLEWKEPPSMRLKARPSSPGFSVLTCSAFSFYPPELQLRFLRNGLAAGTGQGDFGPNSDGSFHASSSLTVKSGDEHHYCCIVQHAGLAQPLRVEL
Chain of human FcRn (human) (P61769 21-119 limits assumed, chain 2 of 2): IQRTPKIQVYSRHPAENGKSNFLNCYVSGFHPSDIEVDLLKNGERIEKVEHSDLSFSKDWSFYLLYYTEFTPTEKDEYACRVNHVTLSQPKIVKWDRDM

Chain of murine FcRn (murine) (chain, as listed by the source limits assumed, chain 1 of 2): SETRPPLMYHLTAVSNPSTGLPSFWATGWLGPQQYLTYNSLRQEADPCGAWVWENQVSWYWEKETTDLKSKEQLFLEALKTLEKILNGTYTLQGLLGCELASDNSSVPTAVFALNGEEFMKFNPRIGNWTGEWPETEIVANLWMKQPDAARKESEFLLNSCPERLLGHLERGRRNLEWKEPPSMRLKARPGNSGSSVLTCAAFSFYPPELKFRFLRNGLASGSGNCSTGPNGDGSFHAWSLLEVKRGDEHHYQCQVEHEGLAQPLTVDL
Chain of murine FcRn (murine) (P01887 21-119 limits assumed, chain 2 of 2): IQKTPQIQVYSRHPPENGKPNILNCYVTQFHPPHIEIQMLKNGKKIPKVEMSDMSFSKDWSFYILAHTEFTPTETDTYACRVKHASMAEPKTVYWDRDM

As to “wild type human IgG1 MEDI-493 (SYNAGIS) (antibody)”, the dissociation constant (Kd) came to 269 nM in the assay with murine FcRn (murine) and 2530 nM with human FcRn (human).

For the origin of these results see US20030190311A1.
